Experimental data: US20220089776A1 (OREGON HEALTH AND SCIENCE UNIVERSITY, published 2022)
Numbering of substitutions follows the chain as printed. Names and notes keep the numbering of the source.

B1: Chimera (chimeric parental antibody) PP13892 (antibody, human IgG4, V domains shown)
VH: DVQLQESGPDLVKPSQSLSLTCTVTGYSITSGYSWHWIRQFPGNNLEWMGYIQYSGNTNSNPSLKSRISITRDTSKNQFFLHLNSVTTEDTATYYCARWGSFDYWGQGTTLTVSS
VL: QIVLTQSPAIMSASPGEKVTMTCSASSSVNYMHWYQQKSGTSPKRWIYDTSKLASGVPARFSGSGSGTSYSLTISSMEAGDAATYYCQQWSGNPPTFGGGTILEIK
notes: Variable regions of murine AB053 on the same human IgG4 (S241P hinge modified) backbone as the humanized antibodies; also called H7879 + L7879
B2: humanized 5C12 antibody HC1 + LC1 (PP13893) (antibody, human IgG4 S228P, kappa, V domains shown)
VH: QVQLQESGPGLVKPSQTLSLTCTVSGYSITSGYSWHWIRQHPGKGLEWIGYIQYSGNTNSNPSLKSRVTISRDTSKNQFSLKLSSVTAADTAVYYCARWGSFDYWGQGTLVTVSS
VL: EIVLTQSPATLSLSPGERATLSCRASSSVNYLHWYQQKPGQAPRRLIYDTSKLATGIPARFSGSGSGTDYTLTISSLEPEDFAVYYCQQWSGNPPTFGGGTKVEIKR
notes: Human IgG4 (S241P hinge modified), expressed in HEK293; also called AB054; h5C12
B3: humanized 5C12 antibody HC1 + LC3 (PP13895) (antibody, human IgG4 S228P, kappa, V domains shown)
VH: B2 VH
VL: B2 VL with E1D, S7T, R44K, G99Q, K102R, V103L
notes: Human IgG4 (S241P hinge modified), expressed in HEK293; also called H7880 + L7882
B4: humanized 5C12 antibody HC2 + LC1 (PP13896) (antibody, human IgG4 S228P, kappa, V domains shown)
VH: B2 VH with Q1D, S25T, I49M
VL: B2 VL
notes: Human IgG4 (S241P hinge modified), expressed in HEK293; also called H7881 + L7880
B5: humanized 5C12 antibody HC3 + LC2 (PP13900) (antibody, human IgG4 S228P, kappa, V domains shown)
VH: B2 VH with Q1D, Q16E, H41P, K82R, L110M
VL: B2 VL with R44K, L46W
notes: Human IgG4 (S241P hinge modified), expressed in HEK293; also called H7882 + L7881
B6: humanized 5C12 antibody HC1 + LC2 (PP13894) (antibody, human IgG4 S228P, kappa, V domains shown)
VH: B2 VH
VL: B2 VL with R44K, L46W
notes: Human IgG4 (S241P hinge modified), expressed in HEK293; also called H7880 + L7881
B7: humanized 5C12 antibody HC3 + LC3 (PP13901) (antibody, human IgG4 S228P, kappa, V domains shown)
VH: B2 VH with Q1D, Q16E, H41P, K82R, L110M
VL: B2 VL with E1D, S7T, R44K, G99Q, K102R, V103L
notes: Human IgG4 (S241P hinge modified), expressed in HEK293; also called H7882 + L7882
B8: humanized 5C12 antibody HC2 + LC3 (PP13898) (antibody, human IgG4 S228P, kappa, V domains shown)
VH: B2 VH with Q1D, S25T, I49M
VL: B2 VL with E1D, S7T, R44K, G99Q, K102R, V103L
notes: Human IgG4 (S241P hinge modified), expressed in HEK293; also called H7881 + L7882
B9: humanized 5C12 antibody HC2 + LC2 (PP13897) (antibody, human IgG4 S228P, kappa, V domains shown)
VH: B2 VH with Q1D, S25T, I49M
VL: B2 VL with R44K, L46W
notes: Human IgG4 (S241P hinge modified), expressed in HEK293; also called H7881 + L7881
B10: humanized 5C12 antibody HC3 + LC1 (PP13899) (antibody, human IgG4 S228P, kappa, V domains shown)
VH: B2 VH with Q1D, Q16E, H41P, K82R, L110M
VL: B2 VL
notes: Human IgG4 (S241P hinge modified), expressed in HEK293; also called H7882 + L7880

Target: T1, human blood protein factor XII (FXII) (human, UniProt P00748 20-615)
T1 construct: mature; Single-chain zymogen as it circulates in plasma; also called human FXII; plasma-derived FXII
T1 sequence (looked up): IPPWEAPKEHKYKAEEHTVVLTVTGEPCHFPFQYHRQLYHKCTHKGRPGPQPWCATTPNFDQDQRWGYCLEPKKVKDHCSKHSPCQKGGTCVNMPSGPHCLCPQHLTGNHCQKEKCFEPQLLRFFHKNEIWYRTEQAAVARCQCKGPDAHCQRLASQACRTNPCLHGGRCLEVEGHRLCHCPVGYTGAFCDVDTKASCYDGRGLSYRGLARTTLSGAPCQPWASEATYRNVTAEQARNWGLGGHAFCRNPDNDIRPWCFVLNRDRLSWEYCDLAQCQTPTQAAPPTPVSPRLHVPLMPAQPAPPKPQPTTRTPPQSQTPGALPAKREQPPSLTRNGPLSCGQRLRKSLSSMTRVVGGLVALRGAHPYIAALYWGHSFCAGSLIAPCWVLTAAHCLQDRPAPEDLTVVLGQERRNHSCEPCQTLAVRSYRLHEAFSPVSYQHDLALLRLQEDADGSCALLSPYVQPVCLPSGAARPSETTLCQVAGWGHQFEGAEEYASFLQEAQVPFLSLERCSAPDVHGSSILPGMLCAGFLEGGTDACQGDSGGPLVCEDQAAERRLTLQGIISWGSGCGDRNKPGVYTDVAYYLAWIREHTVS
Assay: BLI (Octet RED96), antibody on anti-human Fc biosensors, antigen in solution, 1:1 fit
Description: Multi-concentration kinetic experiments were performed on the Octet RED96 system (ForteBio). Anti-human Fc biosensors (ForteBio) were hydrated in sample diluent (0.1% BSA in PBS and 0.02% Tween 20) and preconditioned in pH 1.9 Glycine. Antigen was diluted by a 7-point, 3-fold serial dilution starting at 200 nM with sample diluent. Antibodies were diluted to 1μg/ml with sample diluent and then immobilized onto anti-human Fc biosensors. After baselines were established for 30 seconds in sample diluent, the biosensors were moved to wells containing serially diluted antigen to measure the association and dissociation. […] The binding affinities were characterized by fitting the kinetic sensorgrams to a monovalent binding model (1:1 binding).

B1 and B2 are within 1.5-fold of each other in Kd: 0.24 nM for the first, 0.3 nM for the second.

B3 and B4 are within 1.5-fold of each other in Kd: 0.41 nM for the first, 0.44 nM for the second.

B5 and B6 are within 1.5-fold of each other in Kd: 0.32 nM for the first, 0.3 nM for the second.

B7 and B8 are within 1.5-fold of each other in Kd: 0.35 nM for the first, 0.31 nM for the second.

Going from B9 to B10, the Kd rises from 0.15 nM to 0.27 nM (1.8-fold).

B1 and B2 are within 1.5-fold of each other in koff: 0.00011 s⁻¹ for the first, 0.00016 s⁻¹ for the second.

B3 and B4 are within 1.5-fold of each other in koff: 0.0002 s⁻¹ for the first, 0.00022 s⁻¹ for the second.

B5 and B6 are within 1.5-fold of each other in koff: 0.00019 s⁻¹ for the first, 0.00016 s⁻¹ for the second.

B7 and B8 are within 1.5-fold of each other in koff: 0.00018 s⁻¹ for the first, 0.00016 s⁻¹ for the second.

Going from B9 to B10, the koff rises from 9e-05 s⁻¹ to 0.00015 s⁻¹ (1.7-fold).

B1 and B2 are within 1.5-fold of each other in kon: 460000 M⁻¹ s⁻¹ for the first, 530000 M⁻¹ s⁻¹ for the second.

B3 and B4 are the same in kon: 500000 M⁻¹ s⁻¹ for the first, 500000 M⁻¹ s⁻¹ for the second.

B5 and B6 are within 1.5-fold of each other in kon: 580000 M⁻¹ s⁻¹ for the first, 530000 M⁻¹ s⁻¹ for the second.

B7 and B8 are within 1.5-fold of each other in kon: 530000 M⁻¹ s⁻¹ for the first, 500000 M⁻¹ s⁻¹ for the second.

B9 and B10 are within 1.5-fold of each other in kon: 620000 M⁻¹ s⁻¹ for the first, 560000 M⁻¹ s⁻¹ for the second.

Target: T1, human blood protein factor XII (FXII)
Assay: ELISA, human FXII coated at 1 µg/mL, goat anti-human IgG-HRP detection
Description: One μg/mL of human FXII (Enzyme Research Labs, #HFXII 1212) was coated on the ELISA plate at 4° C. overnight. The coated plate was blocked with 2% BSA in phosphate buffered saline (PBS) at room temperature for one hour and then washed three times with PBS. All antibodies to be tested (PP13892-PP13901 or human Fc isotype control) were diluted with sample diluent in an 11 point, 5-fold, serial dilution starting at 10 μg/mL. Each sample was run in duplicate. Each concentration was incubated on the coated plate for one hour at room temperature and then washed three times with PBS. Bound antibody was detected with goat-anti-human IgG-HRP and washed six times with PBS. TMB substrate was added to each well and the reaction was stopped with 1M HCl. Absorbance was read at 450 nm.
EC₅₀ for the concentration response curve was calculated by plotting the OD measured at 450 nm against the logarithm of antibody concentration and the EC₅₀ was calculated by nonlinear regression analysis.

B1 and B2 are within 1.5-fold of each other in EC50: 9.04 ng/mL for the first, 9.12 ng/mL for the second.

B3 and B4 are within 1.5-fold of each other in EC50: 9.02 ng/mL for the first, 8.24 ng/mL for the second.

B5 and B6 are within 1.5-fold of each other in EC50: 7.69 ng/mL for the first, 8.22 ng/mL for the second.

B7 and B8 are within 1.5-fold of each other in EC50: 9.47 ng/mL for the first, 8.09 ng/mL for the second.

B9 and B10 are within 1.5-fold of each other in EC50: 8.78 ng/mL for the first, 8.48 ng/mL for the second.
